Laboratory results taken from paper PMC11166458, “Caskin2 is a novel talin- and Abi1-binding protein that promotes cell motility” (Journal of Cell Science, 2024).

System: Caskin2
Experiment: GFP-Trap pulldown of Caskin2 by GFP-tagged Abi1 constructs in COS-7 cells
Assay type: binding
Conditions: western blot
Protocol: For transient expression, COS-7 cells were grown to 70% confluence in 10 cm culture dishes and transfected with plasmid DNAs using the DEAE–dextran method ([Schaapveld et al., 1998]). Briefly, 4.5 µg of plasmid DNA was mixed with 500 µg/ml DEAE–dextran in 2.5 ml PBS. Cells were washed two times with PBS and then incubated for 30 min at 37°C with the DEAE–dextran solution. Subsequently, 80 µM chloroquine was added to the cells in 10 ml DMEM with FCS and cells were incubated at 37°C for 3 h. After aspiration of the medium, the cells were treated with 3 ml of DMEM with FCS containing 10% DMSO for 2.5 min. The DMSO solution was then removed and replaced with fresh medium, after which the cells were further incubated for 48–72 h before analysis.
For analysis of protein in whole-cell lysates, cells were washed three times with cold PBS, lysed in Nonidet P-40 lysis buffer [20 mM Tris-HCl pH 7.5, 100 mM NaCl, 1% NP-40), supplemented with Na3VO4 (1.5 mM), NaF (15 mM), protease inhibitor cocktail (1:1000; Sigma-Aldrich) and phosphatase inhibitor cocktail 3 (1:100; Sigma-Aldrich)] and cleared by centrifugation at 14,000 g for 1 h at 4°C. […]
GFP-Trap pulldown experiments were performed as follows. Cleared lysates containing equal amounts of proteins, as determined by a Pierce™ BCA Protein Assay, were incubated with GFP-Trap agarose beads (Chromotek) in a rotation wheel for 6 h at 4°C. […]

B1: GFP–Abi1-DAWN: GFP-tagged Abi1 mutant harboring the mutations D453A and W455N (protein)
chain: MAELQMLLEEEIPSGKRALIESYQNLTRVADYCENNYIQATDKRKALEETKAYTTQSLASVAYQINALANNVLQLLDIQASQLRRMESSINHISQTVDIHKEKVARREIGILTTNKNTSRTHKIIAPANMERPVRYIRKPIDYTVLDDVGHGVKWLKAKHGNNQPARTGTLSRTNPPTQKPPSPPMSGRGTLGRNTPYKTLEPVKPPTVPNDYMTSPARLGSQHSPGRTASLNQRPRTHSGSSGGSGSRENSGSSSIGIPIAVPTPSPPTIGPAPGSAPGSQYGTMTRQISRHNSTTSSTSSGGYRRTPSVTAQFSAQPHVNGGPLYSQNSISIAPPPPPMPQLTPQIPLTGFVARVQENIADSPTPPPPPPPDDIPMFDDSPPPPPPPPVDYEDEEAAVVQYNDPYADGDPAWAPKNYIEKVVAIYDYTKDKDDELSFMEGAIIYVIKKNDAGNYEGVCNRVTGLFPGNYVESIMHYTD
modifications: left off: GFP, end not stated, kept
notes: GFP-tagged Abi1 mutant harboring the mutations D453A and W455N
Caskin2 precipitation by Abi1 construct: unable to precipitate Caskin2
